Molecular target: T1, EGF receptor autophosphorylation site peptide DADEpYL-NH2
T1 chain: DADEYL

B1: DSP-3-glutathione-S-transferase (GST) fusion protein (protein)
chain: MGNGMNKILPGLYIGNFKDARDAEQLSKNKVTHILSVHDSARPMLEGVKYLCIPAADSPSQNLTRHFKESIKFIHECRLRGESCLVHCLAGVSRSVTLVIAYIMTVTDFGWEDALHTVRAGRSCANPNVGFQRQLQEFEKHEVHQYRQWLKEEYGESPLQDAEEAKNILAAPGILKFWAFLRRL
Km (phosphatase assay, release of 32P from substrate peptide): Km=1.2 µM | specific activity (phosphatase assay, release of 32P from substrate peptide): 88.4 nmol/min/mg

From patent US20050176124
